The target in the experiment is cynomolgus TLR3 (cynomolgus, UniProt A0A2K5WT39). The experiment in a line: cell-based or functional assay.

B1: mAb 15EVQ (antibody)
heavy: not shown
light: DIQMTQSPSSLSASVGDRVTITCRASQSIGLYLAWYQQKPGKAPKLLIYAASSLQSGVPSRFSGSGSGTDFTLTISSLQPEDFATYYCQQGNTLSYTFGQGTKVEIKRTVAAPSVFIFPPSDEQLKSGTASVVCLLNNFYPREAKVQWKVDNALQSGNSQESVTEQDSKDSTYSLSSTLTLSKADYEKHKVYACEVTHQGLSSPVTKSFNRGEC
Take B1: the “IC50, ISRE reporter gene assay” value was determined as 1.74 µg/mL and the “IC50, NF-κB reporter gene assay” value was 4.18 µg/mL.

The record behind these values is US9932404B2 (Janssen Biotech, Inc., dated 2018).
